Non-standard residues stand in square brackets, D forms with d.
T1: platelet-derived growth factor β-receptor (PDGFR-β)
T1 chain: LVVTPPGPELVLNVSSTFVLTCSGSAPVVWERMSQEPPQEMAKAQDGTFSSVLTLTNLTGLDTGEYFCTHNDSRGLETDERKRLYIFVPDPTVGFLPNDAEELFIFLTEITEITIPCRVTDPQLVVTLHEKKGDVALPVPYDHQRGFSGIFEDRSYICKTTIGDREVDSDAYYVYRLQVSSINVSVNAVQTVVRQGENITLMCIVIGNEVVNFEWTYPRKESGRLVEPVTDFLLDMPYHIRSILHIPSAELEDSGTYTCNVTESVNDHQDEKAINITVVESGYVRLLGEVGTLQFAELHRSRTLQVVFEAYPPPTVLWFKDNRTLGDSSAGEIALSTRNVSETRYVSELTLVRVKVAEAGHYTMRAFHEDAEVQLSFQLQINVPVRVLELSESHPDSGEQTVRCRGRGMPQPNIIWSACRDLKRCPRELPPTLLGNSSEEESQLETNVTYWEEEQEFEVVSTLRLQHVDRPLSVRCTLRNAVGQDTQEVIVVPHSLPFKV

B1: target cyclic peptide 17 (peptide)
peptide: cyclo(PWSVRKKSW[dP])
SMILES: CC(C)[C@@H]1NC(=O)[C@H](CO)NC(=O)[C@H](Cc2c[nH]c3ccccc23)NC(=O)[C@@H]2CCCN2C(=O)[C@H]2CCCN2C(=O)[C@H](Cc2c[nH]c3ccccc23)NC(=O)[C@H](CO)NC(=O)[C@H](CCCCN)NC(=O)[C@H](CCCCN)NC(=O)[C@H](CCCNC(=N)N)NC1=O
notes: also called ^LP-W-S-V-R / ^DP-W-S-K-K
B2: target cyclic peptide 12 (peptide)
peptide: cyclo(PYKVRKKKY[dP])
SMILES: CC(C)[C@@H]1NC(=O)[C@H](CCCCN)NC(=O)[C@H](Cc2ccc(O)cc2)NC(=O)[C@@H]2CCCN2C(=O)[C@H]2CCCN2C(=O)[C@H](Cc2ccc(O)cc2)NC(=O)[C@H](CCCCN)NC(=O)[C@H](CCCCN)NC(=O)[C@H](CCCCN)NC(=O)[C@H](CCCNC(=N)N)NC1=O
notes: also called ^LP-Y-K-V-R / ^DP-Y-K-K-K
B3: target cyclic peptide 10 (peptide)
peptide: cyclo(PYAVRKKAY[dP])
SMILES: CC(C)[C@@H]1NC(=O)[C@H](C)NC(=O)[C@H](Cc2ccc(O)cc2)NC(=O)[C@@H]2CCCN2C(=O)[C@H]2CCCN2C(=O)[C@H](Cc2ccc(O)cc2)NC(=O)[C@H](C)NC(=O)[C@H](CCCCN)NC(=O)[C@H](CCCCN)NC(=O)[C@H](CCCNC(=N)N)NC1=O
notes: also called ^LP-Y-A-V-R / ^DP-Y-A-K-K
B4: target cyclic peptide 14 (peptide)
peptide: cyclo(PWYVRKKYW[dP])
SMILES: CC(C)[C@@H]1NC(=O)[C@H](Cc2ccc(O)cc2)NC(=O)[C@H](Cc2c[nH]c3ccccc23)NC(=O)[C@@H]2CCCN2C(=O)[C@H]2CCCN2C(=O)[C@H](Cc2c[nH]c3ccccc23)NC(=O)[C@H](Cc2ccc(O)cc2)NC(=O)[C@H](CCCCN)NC(=O)[C@H](CCCCN)NC(=O)[C@H](CCCNC(=N)N)NC1=O
notes: also called ^LP-W-Y-V-R / ^DP-W-Y-K-K
B5: target cyclic peptide 16 (peptide)
peptide: cyclo(PWAVRKKAW[dP])
SMILES: CC(C)[C@@H]1NC(=O)[C@H](C)NC(=O)[C@H](Cc2c[nH]c3ccccc23)NC(=O)[C@@H]2CCCN2C(=O)[C@H]2CCCN2C(=O)[C@H](Cc2c[nH]c3ccccc23)NC(=O)[C@H](C)NC(=O)[C@H](CCCCN)NC(=O)[C@H](CCCCN)NC(=O)[C@H](CCCNC(=N)N)NC1=O
notes: also called ^LP-W-A-V-R / ^DP-W-A-K-K
B6: target cyclic peptide 13 (peptide)
peptide: cyclo(PWIVRKKPW[dP])
SMILES: CC[C@H](C)[C@@H]1NC(=O)[C@H](Cc2c[nH]c3ccccc23)NC(=O)[C@@H]2CCCN2C(=O)[C@H]2CCCN2C(=O)[C@H](Cc2c[nH]c3ccccc23)NC(=O)[C@@H]2CCCN2C(=O)[C@H](CCCCN)NC(=O)[C@H](CCCCN)NC(=O)[C@H](CCCNC(=N)N)NC(=O)[C@H](C(C)C)NC1=O
notes: also called ^LP-W-I-V-R / ^DP-W-P-K-K
B7: target cyclic peptide 18 (peptide)
peptide: cyclo(PWKVRKKKW[dP])
SMILES: CC(C)[C@@H]1NC(=O)[C@H](CCCCN)NC(=O)[C@H](Cc2c[nH]c3ccccc23)NC(=O)[C@@H]2CCCN2C(=O)[C@H]2CCCN2C(=O)[C@H](Cc2c[nH]c3ccccc23)NC(=O)[C@H](CCCCN)NC(=O)[C@H](CCCCN)NC(=O)[C@H](CCCCN)NC(=O)[C@H](CCCNC(=N)N)NC1=O
notes: also called ^LP-W-K-V-R / ^DP-W-K-K-K
B8: target cyclic peptide 11 (peptide)
peptide: cyclo(PYSVRKKSY[dP])
SMILES: CC(C)[C@@H]1NC(=O)[C@H](CO)NC(=O)[C@H](Cc2ccc(O)cc2)NC(=O)[C@@H]2CCCN2C(=O)[C@H]2CCCN2C(=O)[C@H](Cc2ccc(O)cc2)NC(=O)[C@H](CO)NC(=O)[C@H](CCCCN)NC(=O)[C@H](CCCCN)NC(=O)[C@H](CCCNC(=N)N)NC1=O
notes: also called ^LP-Y-S-V-R / ^DP-Y-S-K-K

Biological target: T1, platelet-derived growth factor …
Assay: solid-phase competition, displacement of 125I-PDGF-BB from plate-immobilised PDGFR-β

IC50 [µM] | Binder
800 | B1
1500 | B2
2000 | B3
170 | B4
800 | B5
500 | cyclo(PYWVRKKWY[dP]) (also called ^LP-Y-W-V-R / ^DP-Y-W-K-K) [target cyclic peptide 9]
260 | B6
500 | B7
2000 | B8

From US6878804B1, “Synthesis of template-fixed β-hairpin loop mimetics” (University of Zurich, priority 1999, dated 2005)
